The values that follow come from paper PMC10881513 (Nature Communications, 2024).

For this assay, the target named is T1, ASFV RNA polymerase subunit vRPB1 (African swine fever virus, strain BA71V, UniProt P42486 1-1450).
T1 sequence: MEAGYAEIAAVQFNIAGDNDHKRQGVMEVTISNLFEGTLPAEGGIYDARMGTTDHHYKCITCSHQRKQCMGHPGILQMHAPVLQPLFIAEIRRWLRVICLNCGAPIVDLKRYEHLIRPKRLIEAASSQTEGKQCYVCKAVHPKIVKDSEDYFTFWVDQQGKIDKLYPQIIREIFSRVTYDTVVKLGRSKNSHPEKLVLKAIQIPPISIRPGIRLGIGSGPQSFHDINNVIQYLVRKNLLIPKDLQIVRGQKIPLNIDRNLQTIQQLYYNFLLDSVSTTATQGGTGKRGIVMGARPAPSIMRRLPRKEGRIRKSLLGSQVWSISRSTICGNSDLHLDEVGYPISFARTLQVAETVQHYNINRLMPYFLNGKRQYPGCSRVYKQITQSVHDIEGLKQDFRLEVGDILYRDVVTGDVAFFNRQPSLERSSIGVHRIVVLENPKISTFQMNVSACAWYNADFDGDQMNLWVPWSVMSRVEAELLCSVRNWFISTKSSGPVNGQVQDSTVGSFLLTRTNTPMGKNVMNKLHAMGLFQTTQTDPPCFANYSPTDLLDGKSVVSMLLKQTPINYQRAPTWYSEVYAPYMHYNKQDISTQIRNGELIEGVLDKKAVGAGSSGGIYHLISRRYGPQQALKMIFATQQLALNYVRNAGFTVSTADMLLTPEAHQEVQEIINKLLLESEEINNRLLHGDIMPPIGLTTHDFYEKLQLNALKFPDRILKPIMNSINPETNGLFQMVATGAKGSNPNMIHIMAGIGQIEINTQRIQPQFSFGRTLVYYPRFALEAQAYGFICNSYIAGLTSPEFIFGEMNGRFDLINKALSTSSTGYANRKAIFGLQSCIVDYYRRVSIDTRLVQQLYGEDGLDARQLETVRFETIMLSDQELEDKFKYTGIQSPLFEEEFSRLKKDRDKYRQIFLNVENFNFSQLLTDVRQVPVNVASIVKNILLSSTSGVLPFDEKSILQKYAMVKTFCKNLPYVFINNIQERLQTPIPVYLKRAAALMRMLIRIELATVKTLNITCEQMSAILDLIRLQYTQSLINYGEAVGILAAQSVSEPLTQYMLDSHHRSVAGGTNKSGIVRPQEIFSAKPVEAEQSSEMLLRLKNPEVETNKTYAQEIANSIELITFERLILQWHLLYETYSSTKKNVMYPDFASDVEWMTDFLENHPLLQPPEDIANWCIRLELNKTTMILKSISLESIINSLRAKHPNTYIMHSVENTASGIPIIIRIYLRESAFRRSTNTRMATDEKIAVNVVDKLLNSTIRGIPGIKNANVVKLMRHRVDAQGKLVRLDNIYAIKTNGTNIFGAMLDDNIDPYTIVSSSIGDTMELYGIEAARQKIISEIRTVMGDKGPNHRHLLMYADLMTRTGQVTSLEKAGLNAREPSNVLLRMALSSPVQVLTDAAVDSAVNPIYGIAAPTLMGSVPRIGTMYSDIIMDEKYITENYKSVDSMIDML
The experiment in a line: cryo-EM structure. The note with it: both partners purified.

B1: ASFV RNA polymerase subunit vRPB2, His-ZZ-tag cleaved with TEV (natural protein)
chain: MEPLRPQITYGPIETVDNEELTEADMLSFISAAVNSTGLIGYNIKSFDDLMDNGIPQIVKQMFNVDITYKDQRDHTEIDKLRESVQIQFNFTDVNIERPQHRNYSQGNKINLLPNKARLCGLSYSGPVNLAAEVILTAHYSNGRQEVKRASIPPFQVSTFPIMRGSNRCHTHHLSKTAKKEIGEDPNEPGGYFIARGGEWVVDLLENIRFNTLHIHYHTMQQGNNEIIRGEFISQPGGAFENSSQIIIRYMTTGAITIEINSTKFSKLRIPWYLIFRMFGMTGDDSIIEQVVFDLESNSPVNTFMIEILEKSIHVLDPIFQPVQHEPNREKIIQFLSEKVSKFVSNPSAYKSDENAVQYLNERQLTILDKILLPHMGQTADTRVRKLRFLGLLIHKILLVIMNVFPPTDRDSYRTKRVHGSGVSLAKAFKAIFNTSVIAPIINGFKELLKQTAFEELTQRNIIEAFSAALSKNTASDLNRSMEQSIISGNKTIMVRQRPIVNRVSTQSLERKNLLNTISALRTVNTHNTTNASKQTERADMMRRVHASYPGYICVAQSADTGEKVGMSKQLAITANVCTAGEVLSLKQRLLSDPAIQQLADVSNKDIVRKGLARVFINGEWIGCCTNAFELAQRYRMFRREGKIVHPHTTIYWDSMVDEVEFWLDVGRLTRPLLIVDNNIEKYNQACYKAAEARKKGDKDWEKHKIPFIQNTRFTSQMAKDILAGTLTLEDLVAQGICEFITPEEAENCLVAFSIIELRKHKHDVTRRFTHVDVPQAILGLAALVSPYANCTQPARVTYETNQGRQTGGWYCFSWPYRVDMNRFFQFYNEMPLVKTIAHNYVIPNGLNTIVAYMIYGGYNQEDSVIVSQSFIDRGGFAGTFYREEKVELESDIESFGKPDPLITKNLKPGANYEKLVDGFVPVGTVVKKGDIIIGKVAKIRGEKDELNKYIDRSVMYGFDEPAVVDAVMRPHGPNDEIFGLMRLRYERNLNIGDKMSSRSGNKGIAALALPTSDMPFTEDGLQPDLIVNPHSHPSRMTNGQMIETTVGLANALQGVVTDGTAFLPINVQLLSERLAQEGLRFNGCQKMFNGQTGEYFDAAIFIGPTYHQRLQKFVLDDRYAVASYGPTDALTGQPLDGKRSHGGLRLGEMEHWVLTAQGAMQTIIEKSHDDSDGCISYICRNCGEPAIYNASHPIYKCMNCDVQADIGMVDSRRSSIVFQHEMRAANVNITSVLSPRVFQPA
In the case of B1, the binding result is recorded as “binds”.
